B1: IgG2a (control Ig) (other, mouse, UniProt P01863 98-330, looked up)
chain: EPRGPTIKPCPPCKCPAPNLLGGPSVFIFPPKIKDVLMISLSPIVTCVVVDVSEDDPDVQISWFVNNVEVHTAQTQTHREDYNSTLRVVSALPIQHQDWMSGKEFKCKVNNKDLPAPIERTISKPKGSVRAPQVYVLPPPEEEMTKKQVTLTCMVTDFMPEDIYVEWTNNGKTELNYKNTEPVLDSDGSYFMYSKLRVEKKNWVERNSYSCSVVHEGLHNHHTTKSFSRTPGK
notes: Control protein

In one assay the target is T1, human PD-L2 (human, UniProt Q9BQ51 20-273).
T1 construct: Expressed on transfected COS and 300.19 cells (300-hPD-L2); also called hPD-L2
T1 sequence: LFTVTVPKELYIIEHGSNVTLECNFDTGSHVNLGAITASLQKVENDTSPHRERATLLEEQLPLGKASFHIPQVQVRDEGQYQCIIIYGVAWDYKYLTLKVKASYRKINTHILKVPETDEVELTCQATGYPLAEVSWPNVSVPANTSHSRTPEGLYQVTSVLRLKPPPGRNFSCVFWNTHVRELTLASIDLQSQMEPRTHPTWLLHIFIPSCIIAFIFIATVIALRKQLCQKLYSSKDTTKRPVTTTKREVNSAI
Briefly: FACS on transfected COS cells.

The assay “IgG2a (control Ig)” addresses B1. Briefly: FACS on transfected COS cells.

As to B1, in the assay with human PD-L2, the binding result is “no binding”.

B2: mouse PD-L2 (ligand)
chain: LFTVTAPKEVYTVDVGSSVSLECDFDRRECTELEGIRASLQKVENDTSLQSERATLLEEQLPLGKALFHIPSVQVRDSGQYRCLVICGAAWDYKYLTVKVKASYMRIDTRILEVPGTGEVQLTCQARGYPLAEVSWQNVSVPANTSHIRTPEGLYQVTSVLRLKPQPSRNFSCMFWNAHMKELTSAIIDPLSRMEPKVPRTWPLHVFIPACTIALIFLAIVIIQRKRI
notes: Expressed on transfected COS, CHO.I-A^d, CHO.I-A^d.B7-2 and 300.19 cells; also called murine PD-L2; mPD-L2
B2: the binding result with IgG2a (control Ig) is on record as “no binding”.

Source of the values: patent US20020164600A1 (Dana-Farber, published 2002).
